Experimental data reported in patent US20260193331A1 (THABOR THERAPEUTICS, published 2026).
Changes are numbered by the printed parent chain. Where two headings read alike, the source gives them in different places.

T1: human AGR2 WT (human, UniProt O95994 21-175)
T1 construct: also called hAGR2; recombinant human AGR2
T1 sequence: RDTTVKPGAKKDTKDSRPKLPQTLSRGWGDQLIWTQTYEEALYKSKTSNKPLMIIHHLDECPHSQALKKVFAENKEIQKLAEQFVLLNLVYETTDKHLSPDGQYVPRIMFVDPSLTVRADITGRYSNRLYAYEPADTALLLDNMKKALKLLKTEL

T2: macaque AGR2 (macaque (rhesus monkey), UniProt O95994 21-175 (human entry), limits assumed)
T2 construct: Whole entry as named; also called rhesus monkey AGR2
T2 chain: T1 sequence with M109L

T3: human AGR2 E60A (human, UniProt O95994 21-175)
T3 construct: Whole entry as named; also called monomeric AGR2
T3 chain: T1 sequence with E40A

T4: mouse AGR2 (mouse, UniProt O88312 21-175)
T4 construct: Whole entry as named
T4 sequence: T1 sequence with R1K, P7S, T13P, K44R, K50R, I54V, N74H, M109V, A135S, L141Y

T5: dog AGR2 (dog, UniProt O95994 21-175 (human entry), limits assumed)
T5 construct: Whole entry as named
T5 chain: T1 sequence with R1K, T3I, P7S, R17A, M109I, A135S, T137I

T6: human AGR3 (human, UniProt Q8TD06 22-166, limits assumed)
T6 construct: Closest family member of AGR2, used as a specificity control in the ELISA
T6 sequence (looked up): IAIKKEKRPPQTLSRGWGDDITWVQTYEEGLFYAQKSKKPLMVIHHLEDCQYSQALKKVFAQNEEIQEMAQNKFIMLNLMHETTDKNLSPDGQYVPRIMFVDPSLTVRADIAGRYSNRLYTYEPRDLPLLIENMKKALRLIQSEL

B1: TH-106 IgG1-LALA humanized monoclonal antibody (antibody)
heavy: not shown
light: EIVLTQSPATLSLSPGERATLSCKASQDINSYLSWFQQKPGQAPRTLIYRANRLVDGIPARFSGSGSGQDFTLTISSLEPEDFAVYYCLQYDEFPFTFGGGTKVEIKRTVAAPSVFIFPPSDEQLKSGTASVVCLLNNFYPREAKVQWKVDNALQSGNSQESVTEQDSKDSTYSLSSTLTLSKADYEKHKVYACEVTHQGLSSPVTKSFNRGEC
B2: TH-106 IgG1 humanized monoclonal antibody (antibody)
heavy: not shown
light: B1 light
B3: TH-109 IgG1-LALA humanized monoclonal antibody (antibody, V domains shown)
VH: QVQLVQSGSELKKPGASVKVSCKTSGYVFSRSWMNWVRQAPGQGLEWIGWIYPGDGDTNYNGKFKDRFVLSADKSVSTVYLQISSLKAEDTAVYFCARGGYDGSPWLSYWGQGTLVTVSS
VL: EIVLTQSPATLSLSPGERATLSCKASQDINSYLSWFQQKPGQAPRTLIYRANRLVDGIPARFSGSGSGQDFTLTISSLEPEDFAVYYCLQYDEFPFTFGGGTKVEIKR
B4: TH-115 IgG1-LALA humanized monoclonal antibody (antibody, V domains shown)
VH: QVQLLESGGGLVKPGGSLRLSCATSGYVFSRSWMNWIRQAPGQGLEWIGWIYPGDGDTNYNGKVKDRFTLSADKAKNSVYLQMNSLRAEDTAVYFCARGGYDGSPWLSYWGQGTLVTVSS
VL: EIVLTQSPDFQSVTPKEKVTITCKASQDINSYLSWFQQKPDQSPKTLIYRANRLVDGVPSRFSGSGSGQDFTLTINSLEAEDAATYYCLQYDEFPFTFGGGTKVEIKR
B5: TH-101 IgG1-LALA humanized monoclonal antibody (antibody, V domains shown)
VH: QVQLVQSGAEVKKPGASVKVSCKTSGYVFSRSWMNWVRQAPGQGLEWIGWIYPGDGDTNYNGKFKDRVTLTADKSTSTVYMELSSLRSEDTAVYFCARGGYDGSPWLSYWGQGTLVTVSS
VL: DIQMTQSPSSLSASVGDRVTITCKASQDINSYLSWFQQKPGKAPKTLIYRANRLVDGVPSRFSGSGSGQDFTLTISSLQPEDIATYYCLQYDEFPFTFGGGTKVEIKR
B6: TH-104 IgG1-LALA humanized monoclonal antibody (antibody, V domains shown)
VH: B3 VH
VL: B5 VL

Tests used:
[1] = target: T1, human AGR2 WT; test: kinetics, antibody immobilized, hAGR2 soluble analyte; instrument not stated
[2] = target: T1, human AGR2 WT; test: ELISA, antigen coated at 1 µg/mL, antibody titrated
[3] = target: T2, macaque AGR2; test: as above
[4] = target: T3, human AGR2 E60A; test: as above
[5] = target: T4, mouse AGR2; test: as above
[6] = target: T5, dog AGR2; test: as above
[7] = target: T1, human AGR2 WT; test: kinetics of Table 4, antibody immobilized, hAGR2 analyte
[8] = target: T7, BSA (UniProt P02769 25-607); test: ELISA on plate-coated antigen (1 µg/mL); antibody titrated 10 µg/mL to 0.15 ng/mL; anti-human IgG-HRP, OD 450 nm
T7 construct: Negative control coating in the ELISA

[9] = target: T6, human AGR3; test: as above
[10] = target: T7, BSA; test: as above; remark: listed apart in the source
[11] = target: T6, human AGR3; test: as above; remark: listed apart in the source
[12] = target: T7, BSA; test: as above; remark: listed apart in the source
[13] = target: T6, human AGR3; test: as above; remark: listed apart in the source
[14] = target: T7, BSA; test: as above; remark: listed apart in the source
[15] = target: T6, human AGR3; test: as above; remark: listed apart in the source
[16] = target: T7, BSA; test: as above; remark: listed apart in the source
[17] = target: T6, human AGR3; test: as above; remark: listed apart in the source
[18] = target: T7, BSA; test: as above; remark: listed apart in the source
[19] = target: T6, human AGR3; test: as above; remark: listed apart in the source

T7 sequence (P02769 25-607 limits assumed): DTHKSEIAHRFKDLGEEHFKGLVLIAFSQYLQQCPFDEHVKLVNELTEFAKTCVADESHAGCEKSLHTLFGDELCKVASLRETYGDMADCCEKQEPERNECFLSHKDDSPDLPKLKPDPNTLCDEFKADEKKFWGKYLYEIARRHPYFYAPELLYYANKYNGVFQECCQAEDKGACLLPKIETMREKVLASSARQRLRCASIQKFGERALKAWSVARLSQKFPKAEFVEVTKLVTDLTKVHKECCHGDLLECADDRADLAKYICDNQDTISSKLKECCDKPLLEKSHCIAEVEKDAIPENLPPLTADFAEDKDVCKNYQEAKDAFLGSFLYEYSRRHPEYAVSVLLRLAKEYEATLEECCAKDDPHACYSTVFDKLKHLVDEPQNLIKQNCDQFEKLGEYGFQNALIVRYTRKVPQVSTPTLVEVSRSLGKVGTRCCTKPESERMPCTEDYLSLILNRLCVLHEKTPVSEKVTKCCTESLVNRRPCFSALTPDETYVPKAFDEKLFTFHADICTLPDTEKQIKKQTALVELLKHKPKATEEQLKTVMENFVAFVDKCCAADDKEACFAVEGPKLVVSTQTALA

Binder	Kd [1]	koff [1]	kon [1]	EC50 [2]	EC50 [3]	EC50 [4]	EC50 [5]	EC50 [6]	Kd [7]	further results
B1	0.00327 nM	1.07e-06 s⁻¹	326000 M⁻¹ s⁻¹	0.633 nM	0.547 nM	0.96 nM	0.313 nM	0.547 nM	< 0.15 nM	binding result [8]: no binding (tested: 10 µg/mL); binding result [9]: no binding (tested: 10 µg/mL)
B2				0.853 nM	0.553 nM	1.1 nM	0.3 nM	0.66 nM		binding result [10]: no binding (tested: 10 µg/mL); binding result [11]: no binding (tested: 10 µg/mL)
B3	0.0265 nM	8.74e-06 s⁻¹	329000 M⁻¹ s⁻¹	2.37 nM	2.15 nM	3.57 nM	2.03 nM	2.31 nM	< 0.15 nM	binding result [12]: no binding (tested: 10 µg/mL); binding result [13]: no binding (tested: 10 µg/mL)
B4	0.063 nM	1.94e-05 s⁻¹	308000 M⁻¹ s⁻¹	0.813 nM	0.62 nM	1.29 nM	0.5 nM	0.6 nM	< 0.15 nM	binding result [14]: no binding (tested: 10 µg/mL); binding result [15]: no binding (tested: 10 µg/mL)
B5	0.116 nM	3.52e-05 s⁻¹	303000 M⁻¹ s⁻¹	0.52 nM	0.48 nM	1.24 nM	0.28 nM	0.42 nM	< 0.15 nM	binding result [16]: no binding (tested: 10 µg/mL); binding result [17]: no binding (tested: 10 µg/mL)
B6	0.0278 nM	8.23e-06 s⁻¹	296000 M⁻¹ s⁻¹	0.527 nM	0.44 nM	0.92 nM	0.3 nM	0.48 nM	< 0.15 nM	binding result [18]: no binding (tested: 10 µg/mL); binding result [19]: no binding (tested: 10 µg/mL)
